From the supplement of paper PMC10065799, “High-throughput profiling of sequence recognition by tyrosine kinases and SH2 domains using bacterial peptide display” (eLife, 2023)

The sequences below were run against Grb2 SH2 (UniProt P62993) (assay: SH2 binding enrichment of the phosphorylated peptide, bacterial display (enrichment ratio); higher = better substrate or ligand; peptides without Tyr show the background).
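Throughout, for SH2 binding enrichment of the phosphorylated peptide, bacterial display: peptide library displayed on the E. coli surface as eCPX fusions, selected cells deep-sequenced, score is each peptide's frequency after selection divided by its frequency in the input.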

Row | Sequence | SH2 binding enrichment
1 | PVKDPYVMFPQ [PLEKHG2_Y489] | 0.569
2 | GNHISYYQSDG [CACNA1C_Y1757_V1755I] | 0.885
3 | RVGVDYEGRGC [PLOD1_Y675_G678R] | 0.902
4 | ASGKFYAMKIL [AKT3_Y174_YF] | 1
5 | LPENPYHSRPR [NDUFA8_Y142] | 1.03
6 | SVVVPYELPEV [TP53_Y220_P222L] | 0.765
7 | TVSQPYSFIEF [SEC22B_Y110_R108Q] | 1.06
8 | LKDEDYLKDIV [HAUS3_Y582] | 0.912
9 | PESILYRKFTT [NTRK1_Y701] | 0.724
10 | ADEQIYWQIAA [CSKtide_2014] | 0.649
11 | IRTIDYRFTVS [IDS_Y497_W502S_YF] | 1.18
12 | SIDLGYHKDLQ [NF1_Y1169_G1166D] | 0.661
13 | YQQLFYLLQIN [IQGAP2_Y890_T894I] | 1.31
14 | EQYELHCEMGS [CBL_Y371_Y371H] | 0.815
15 | NGVSFYINLCQ [IGF2R_Y2025_YF] | 0.791
16 | ANNPLYKEVTS [ITGB3_Y773_A776V] | 1.07

Next, values leading:

Row | SH2 binding enrichment | Sequence
17 | 0.876 | STILLYHIMAW [GPR143_Y157]
18 | 0.954 | NKVKFYIPDMN [NCR1_Y84]
19 | 0.801 | GIVEDYRPPLF [ACVRL1_Y421_F425L_YF]
20 | 1.06 | HFVDEYDRTIE [KRAS_Y32_P34R]
21 | 0.979 | RCLKDYGEFEV [GINS1_Y156]
22 | 0.918 | QPSALYEDRYL [ASS1_Y83_S79P]
23 | 0.832 | IHHIDYFKETT [FGFR1_Y653_K656E_YF]
24 | 0.87 | PEPTGYSAELS [EZR_Y499_A494P]
25 | 0.901 | NMSRIYSTAKV [ACE_Y151]
26 | 0.721 | HTVVSYAEVRA [CLOCK_Y378]
27 | 0.774 | CEAIEYLESKQ [BTK_Y511_M509I]
28 | 0.841 | FSQETYYRVSN [ABCD1_Y180_Q178E]
29 | 0.874 | EAIAKYDLKAT [GRB2_Y7_F9L]
30 | 0.926 | RREQDYTNLPS [CSF1R_Y923_R921Q]
31 | 1.08 | CSKRFYQLTKL [AR_Y858_R855K]
32 | 1.03 | MSRDVYSIDFF [NTRK2_Y702_T704I_YF]
33 | 0.845 | EHEALYLEADL [CENPF_Y1920]

What follows are sequences tested against c-Src SH2 in the same assay as above.

Row | Sequence | SH2 binding enrichment
34 | PVKDPYVMFPQ [PLEKHG2_Y489] | 2.35
35 | GNHISYYQSDG [CACNA1C_Y1757_V1755I] | 2.32
36 | RVGVDYEGRGC [PLOD1_Y675_G678R] | 0.638
37 | ASGKFYAMKIL [AKT3_Y174_YF] | 0.763
38 | LPENPYHSRPR [NDUFA8_Y142] | 0.561
39 | SVVVPYELPEV [TP53_Y220_P222L] | 1.78
40 | TVSQPYSFIEF [SEC22B_Y110_R108Q] | 9.41
41 | LKDEDYLKDIV [HAUS3_Y582] | 0.455
42 | PESILYRKFTT [NTRK1_Y701] | 0.412
43 | ADEQIYWQIAA [CSKtide_2014] | 0.439
44 | IRTIDYRFTVS [IDS_Y497_W502S_YF] | 0.813
45 | SIDLGYHKDLQ [NF1_Y1169_G1166D] | 0.544
46 | YQQLFYLLQIN [IQGAP2_Y890_T894I] | 0.91
47 | EQYELHCEMGS [CBL_Y371_Y371H] | 0.611
48 | NGVSFYINLCQ [IGF2R_Y2025_YF] | 0.396
49 | ANNPLYKEVTS [ITGB3_Y773_A776V] | 0.733

Now from value to sequence:

Row | SH2 binding enrichment | Sequence
50 | 0.634 | STILLYHIMAW [GPR143_Y157]
51 | 0.854 | NKVKFYIPDMN [NCR1_Y84]
52 | 0.349 | GIVEDYRPPLF [ACVRL1_Y421_F425L_YF]
53 | 1.14 | HFVDEYDRTIE [KRAS_Y32_P34R]
54 | 0.685 | RCLKDYGEFEV [GINS1_Y156]
55 | 0.984 | QPSALYEDRYL [ASS1_Y83_S79P]
56 | 0.447 | IHHIDYFKETT [FGFR1_Y653_K656E_YF]
57 | 0.461 | PEPTGYSAELS [EZR_Y499_A494P]
58 | 0.545 | NMSRIYSTAKV [ACE_Y151]
59 | 3.25 | HTVVSYAEVRA [CLOCK_Y378]
60 | 0.64 | CEAIEYLESKQ [BTK_Y511_M509I]
61 | 0.654 | FSQETYYRVSN [ABCD1_Y180_Q178E]
62 | 0.478 | EAIAKYDLKAT [GRB2_Y7_F9L]
63 | 0.759 | RREQDYTNLPS [CSF1R_Y923_R921Q]
64 | 0.777 | CSKRFYQLTKL [AR_Y858_R855K]
65 | 0.656 | MSRDVYSIDFF [NTRK2_Y702_T704I_YF]
66 | 0.57 | EHEALYLEADL [CENPF_Y1920]

The sequences below were run against SHP2-C SH2 in the same assay as above.

Row | Sequence | SH2 binding enrichment
67 | PVKDPYVMFPQ [PLEKHG2_Y489] | 0.453
68 | GNHISYYQSDG [CACNA1C_Y1757_V1755I] | 0.751
69 | RVGVDYEGRGC [PLOD1_Y675_G678R] | 0.797
70 | ASGKFYAMKIL [AKT3_Y174_YF] | 1.05
71 | LPENPYHSRPR [NDUFA8_Y142] | 0.637
72 | SVVVPYELPEV [TP53_Y220_P222L] | 0.614
73 | TVSQPYSFIEF [SEC22B_Y110_R108Q] | 10.1
74 | LKDEDYLKDIV [HAUS3_Y582] | 0.983
75 | PESILYRKFTT [NTRK1_Y701] | 0.81
76 | ADEQIYWQIAA [CSKtide_2014] | 0.515
77 | IRTIDYRFTVS [IDS_Y497_W502S_YF] | 1.18
78 | SIDLGYHKDLQ [NF1_Y1169_G1166D] | 0.486
79 | YQQLFYLLQIN [IQGAP2_Y890_T894I] | 1.28
80 | EQYELHCEMGS [CBL_Y371_Y371H] | 0.859
81 | NGVSFYINLCQ [IGF2R_Y2025_YF] | 0.651
82 | ANNPLYKEVTS [ITGB3_Y773_A776V] | 0.563

Other lines, results leading:

Row | SH2 binding enrichment | Sequence
83 | 0.899 | STILLYHIMAW [GPR143_Y157]
84 | 0.849 | NKVKFYIPDMN [NCR1_Y84]
85 | 0.671 | GIVEDYRPPLF [ACVRL1_Y421_F425L_YF]
86 | 0.682 | HFVDEYDRTIE [KRAS_Y32_P34R]
87 | 0.888 | RCLKDYGEFEV [GINS1_Y156]
88 | 0.461 | QPSALYEDRYL [ASS1_Y83_S79P]
89 | 0.767 | IHHIDYFKETT [FGFR1_Y653_K656E_YF]
90 | 0.63 | PEPTGYSAELS [EZR_Y499_A494P]
91 | 1.25 | NMSRIYSTAKV [ACE_Y151]
92 | 27.9 | HTVVSYAEVRA [CLOCK_Y378]
93 | 0.738 | CEAIEYLESKQ [BTK_Y511_M509I]
94 | 0.628 | FSQETYYRVSN [ABCD1_Y180_Q178E]
95 | 0.741 | EAIAKYDLKAT [GRB2_Y7_F9L]
96 | 0.821 | RREQDYTNLPS [CSF1R_Y923_R921Q]
97 | 0.874 | CSKRFYQLTKL [AR_Y858_R855K]
98 | 0.809 | MSRDVYSIDFF [NTRK2_Y702_T704I_YF]
99 | 0.56 | EHEALYLEADL [CENPF_Y1920]

These sequences were tested on Fer (mouse) (assay: phosphorylation enrichment, bacterial display (enrichment ratio); higher = better substrate or ligand; peptides without Tyr show the background).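 Note: 11-residue human phosphosite peptides and single-mutation variants displayed on the E. coli surface, counted by deep sequencing, each peptide's frequency after selection divided by its frequency in the unselected input library; frequency after pTyr selection over input frequency; kinase dosed for 20-30% of maximal phosphorylation in three min.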

Row | Sequence | phosphorylation enrichment
100 | STILLYHIMAW [GPR143_Y157] | 1.02
101 | NKVKFYIPDMN [NCR1_Y84] | 0.448
102 | GIVEDYRPPLF [ACVRL1_Y421_F425L_YF] | 0.406
103 | PVKDPYVMFPQ [PLEKHG2_Y489] | 0.49
104 | GNHISYYQSDG [CACNA1C_Y1757_V1755I] | 0.367
105 | HFVDEYDRTIE [KRAS_Y32_P34R] | 0.794
106 | RCLKDYGEFEV [GINS1_Y156] | 1.16
107 | QPSALYEDRYL [ASS1_Y83_S79P] | 6.74
108 | IHHIDYFKETT [FGFR1_Y653_K656E_YF] | 0.451
109 | RVGVDYEGRGC [PLOD1_Y675_G678R] | 0.51
110 | PEPTGYSAELS [EZR_Y499_A494P] | 0.456
111 | ASGKFYAMKIL [AKT3_Y174_YF] | 0.543
112 | NMSRIYSTAKV [ACE_Y151] | 0.416
113 | LPENPYHSRPR [NDUFA8_Y142] | 0.384
114 | SVVVPYELPEV [TP53_Y220_P222L] | 0.581
115 | TVSQPYSFIEF [SEC22B_Y110_R108Q] | 19.4
116 | HTVVSYAEVRA [CLOCK_Y378] | 0.52

Row | Sequence | phosphorylation enrichment
117 | CEAIEYLESKQ [BTK_Y511_M509I] | 0.521
118 | FSQETYYRVSN [ABCD1_Y180_Q178E] | 0.492
119 | LKDEDYLKDIV [HAUS3_Y582] | 1.4
120 | PESILYRKFTT [NTRK1_Y701] | 0.818
121 | EAIAKYDLKAT [GRB2_Y7_F9L] | 0.443
122 | ADEQIYWQIAA [CSKtide_2014] | 2.25
123 | IRTIDYRFTVS [IDS_Y497_W502S_YF] | 0.596
124 | SIDLGYHKDLQ [NF1_Y1169_G1166D] | 0.503
125 | RREQDYTNLPS [CSF1R_Y923_R921Q] | 0.532
126 | CSKRFYQLTKL [AR_Y858_R855K] | 0.492
127 | MSRDVYSIDFF [NTRK2_Y702_T704I_YF] | 1.16
128 | EHEALYLEADL [CENPF_Y1920] | 1.2
129 | YQQLFYLLQIN [IQGAP2_Y890_T894I] | 0.751
130 | EQYELHCEMGS [CBL_Y371_Y371H] | 0.915
131 | NGVSFYINLCQ [IGF2R_Y2025_YF] | 0.671
132 | ANNPLYKEVTS [ITGB3_Y773_A776V] | 0.486
